Results published in the supplement of paper PMC12042874.
± gives the uncertainty stated by the source.

experiment: amyloid nucleation score (Sup35N fusion, yeast selection) (log enrichment); library NNK1; higher = more nucleation; inactive = no reads after selection
How it was run: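 Peptides of 20 random codons fused to Sup35N were expressed in psi-negative yeast, induced 24 hours with 100 μM copper sulfate, then grown 7 days at 30°C on medium lacking adenine and uracil. Input and output plasmid inserts were Illumina-sequenced. Nucleation score is the DiMSum log enrichment of output over input reads, centred on the mode score of non-aggregating sequences, excluding sequences with under 100 input reads. Random libraries had three technical output replicates.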

LRWLSRKILLTVRASN and LRYVKSHSTMAFKLGATPGT are within error of each other in amyloid nucleation score: -0.125 ± 0.33 for the first, 0.505 ± 0.66 for the second.

LSCIVW and LSGFLSYYLCKPKA are within error of each other in amyloid nucleation score: -0.366 ± 0.57 for the first, -0.887 ± 0.38 for the second.

LSGGPSGLINAFLYPSPNKW and LSGTTLIPEYILRSSNPSI are within error of each other in amyloid nucleation score: 0.07 ± 0.81 for the first, 0.147 ± 1.6 for the second.

First: LSGWHSNLAGRPFPNEMDDG
Second: LSIFMTITAVESPWVTETVF
The amyloid nucleation score of the first is higher: 0.284 ± 0.3 for the first, -0.803 ± 0.4 for the second.

First: LSIFVF
Second: LSLSYPYFTFAHSVEMRESI
The amyloid nucleation score of the first is lower: 1.75 ± 0.25 for the first, 9.039 ± 0.053 for the second.

LSMWSRHSMTPRFFLGLTPV and LSPHLPSESLGLGPMS are within error of each other in amyloid nucleation score: 0.766 ± 0.69 for the first, -0.921 ± 1.4 for the second.

LSPRSSA and LSQIWIKSPGFAKDFTPILC are within error of each other in amyloid nucleation score: -0.322 ± 0.65 for the first, 0.045 ± 0.36 for the second.

LSTNDTSR and LSTVRLFILEPLYGGPPRNG are within error of each other in amyloid nucleation score: -0.028 ± 0.53 for the first, -1.4 ± 1.4 for the second.

Compared with LSTYAGCRNAWPELQ, LSVRDVLYGHVRWVGWGGVK is higher in amyloid nucleation score: -0.52 ± 0.4 for the first, 0.886 ± 0.64 for the second.

LSVVSWICRFDALQGHSCVK and LSWFMGLSYIKILYYCHIYD are within error of each other in amyloid nucleation score: -0.561 ± 0.41 for the first, -0.142 ± 1.1 for the second.

LSWVVVVSNKYGQTMTCVVI and LSYLGLLP are within error of each other in amyloid nucleation score: -0.326 ± 0.5 for the first, 0.373 ± 0.62 for the second.

LTISRSYRPKWFSVSTGLDS and LTNFNAWR are within error of each other in amyloid nucleation score: 0.437 ± 1.4 for the first, 0.098 ± 0.47 for the second.

LTPNVFAL and LTRSRGVSRLYIVRGVTDVW are within error of each other in amyloid nucleation score: -0.345 ± 0.3 for the first, 0.076 ± 0.43 for the second.

LTSQSLVVNFLLYCTG and LTSWLDYDDISEWHRSDGFR are within error of each other in amyloid nucleation score: 1.1 ± 0.85 for the first, 0.987 ± 0.57 for the second.

Compared with LTTQIVIFFCWVCKDINCCK, LTWLL is lower in amyloid nucleation score: 4.88 ± 0.081 for the first, 0.992 ± 0.97 for the second.

LVAATP and LVCRYFRNRWMPSTRWGVHS are within error of each other in amyloid nucleation score: 0.898 ± 0.66 for the first, 0.711 ± 0.85 for the second.

LVCVGTGSGMFEHRAIMMLV and LVDWVYGWGVVVFAMSQGSE are within error of each other in amyloid nucleation score: -0.174 ± 0.51 for the first, 0.125 ± 1.4 for the second.

Compared with LVFGILHGCFEVVSGMLRVD, LVFVSFIW is higher in amyloid nucleation score: -0.801 ± 0.65 for the first, 0.942 ± 0.17 for the second.

Compared with LVGRRGYFSLVWVPGMSFMR, LVHKLFDIRRCPTAFSNWTM is higher in amyloid nucleation score: 0.289 ± 0.45 for the first, 1.29 ± 0.47 for the second.

LVHPSWN and LVIPVDRDANGLCYR are within error of each other in amyloid nucleation score: -0.311 ± 0.77 for the first, 0.46 ± 0.6 for the second.

Compared with LVLCSFYYDKAWSPESCLME, LVLSSPRHDMSCSYAHFNMN is higher in amyloid nucleation score: -0.258 ± 0.62 for the first, 1.38 ± 0.43 for the second.

Compared with LVMSTRLQTCCWLNVNVGWV, LVNVCFRWNLKCYYQSSEYA is lower in amyloid nucleation score: 6.04 ± 0.069 for the first, 0.518 ± 0.32 for the second.

Going from LVNWYTQILICTCPGHKLRR to LVQMLTVDCATEKLHLAILS, the amyloid nucleation score falls from 8.156 ± 0.053 to 0.567 ± 0.64.

LVRRRSKSRVRVPFLRLSMR and LVRYLCVPSFGKAGYDGEGE are within error of each other in amyloid nucleation score: -0.415 ± 0.72 for the first, -0.86 ± 0.79 for the second.

LVSGRRGRRESSNHMVGLLE and LVVLL are within error of each other in amyloid nucleation score: 0.968 ± 0.51 for the first, -0.108 ± 0.71 for the second.

LVVVGGKLNLTTWNAR and LVWISVL are within error of each other in amyloid nucleation score: 0.829 ± 1 for the first, 0.163 ± 0.32 for the second.

Compared with LWCCMTLTIASNDFLNIRCM, LWDLKIAGRLNLEGCRCGLW is higher in amyloid nucleation score: 1.31 ± 0.15 for the first, 2.1 ± 0.13 for the second.

LWDVRPWRWVWEWENVNYGK and LWFAHNS are within error of each other in amyloid nucleation score: 0.382 ± 0.54 for the first, 0.462 ± 0.59 for the second.

LWFLNRRLVKQSYG and LWLIPRWYDLTEMECFDMYN are within error of each other in amyloid nucleation score: 0.606 ± 0.38 for the first, 0.477 ± 0.45 for the second.

LWNIIVSIKGRIVESLAPTY and LWNIMVLDIWDRDLCSCIWG are within error of each other in amyloid nucleation score: -0.113 ± 0.51 for the first, 0.756 ± 0.56 for the second.

LYAHYRADVHEEKSLYYVIA and LYAVLDILVMFMLMSPP are within error of each other in amyloid nucleation score: 0.101 ± 0.23 for the first, 0.253 ± 0.36 for the second.

Compared with LYCFIMDFLLGFKHCMCKGV, LYDLNIKWWRGASLVECECL is lower in amyloid nucleation score: 1.55 ± 0.44 for the first, 0.139 ± 0.41 for the second.

First: LYGSVKNIKRLPHCFMLCLC
Second: LYIQSSNYRDMVYPYSVVPL
The amyloid nucleation score of the first is lower: 0.616 ± 0.36 for the first, 1.95 ± 0.28 for the second.

First: LYLEARGGRVSYHQLFFGER
Second: LYLIGTILNLIGY
The amyloid nucleation score of the first is lower: 2.45 ± 0.18 for the first, 5.746 ± 0.045 for the second.

LYNVSSLGSANKSFLGRSS and LYPLMEGDRKKL are within error of each other in amyloid nucleation score: 1.39 ± 0.76 for the first, 0.981 ± 0.47 for the second.

LYPNRAGGRLAGLGGMPYE and LYSIVVKYCYQYLSRACNYN are within error of each other in amyloid nucleation score: 0.085 ± 0.44 for the first, 0.637 ± 0.36 for the second.

Compared with LYTCCSTYVCSNLGRNVK, LYTVTTKR is lower in amyloid nucleation score: 7.074 ± 0.06 for the first, -0.119 ± 0.31 for the second.

LYVDYQCIGSFVTIYKYITP and LYVFSEKIFCRNGFSSYISL are within error of each other in amyloid nucleation score: 0.889 ± 0.27 for the first, 0.855 ± 0.74 for the second.

LYVVSSVFLGEPVRKQVYQI and LYYNASTAIELNLEYSIKWL are within error of each other in amyloid nucleation score: -0.678 ± 0.96 for the first, 0.17 ± 0.8 for the second.

MAFMHLIISYCRYIF showed an amyloid nucleation score of 0.341 ± 0.74.

In the case of LSNSSEVPHNSVNINDFVWD, the amyloid nucleation score is reported as “inactive”.
For LVLVWVAIHFDRLRIHRFFI, the amyloid nucleation score was “inactive”.
In the case of LVPVIKEQFCCHVWVMV, the amyloid nucleation score is reported as “inactive”.
With LVSRRSGHKYYGTTTDCCKN the amyloid nucleation score was “inactive”.
For LWYTFMSLHLGTVLEVRK, the amyloid nucleation score was “inactive”.
In the case of LYHWYLRR, the amyloid nucleation score is reported as “inactive”.
For LYRFWCYALST, the amyloid nucleation score was “inactive”.
